Test results published in patent EP4450093A1, “CLEAVABLE IMMUNE CELL ENGAGERS” (Synaffix B.V., priority 2023, dated 2024).

Target: IL-15 receptor on the IL-15 cells of the IL-15 bioassay (Promega, cat.# JA2015) (mouse cell line)
Assay: cell-based or functional assay

Fold induction, IL-15 bioassay: 0.9 fold
Substance: trastuzumab (Herceptin), non-modified antibody
